Measurements from patent US20230242624A1 (NEURIMMUNE, published 2023).
Where a chain is given by its changes, count along the chain named.

T1: MERS-CoV Spike protein fragment (RBD, aa 367-606, His tag) (MERS-CoV, UniProt K9N5Q8 367-606)
T1 sequence: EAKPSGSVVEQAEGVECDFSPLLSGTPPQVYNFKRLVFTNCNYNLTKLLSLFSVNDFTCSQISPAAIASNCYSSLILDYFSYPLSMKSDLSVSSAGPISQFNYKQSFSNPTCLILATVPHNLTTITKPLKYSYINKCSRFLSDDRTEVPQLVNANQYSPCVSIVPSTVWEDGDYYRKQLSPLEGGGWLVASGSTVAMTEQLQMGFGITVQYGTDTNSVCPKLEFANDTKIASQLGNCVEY

B1: NI-607.531_E7 (antibody, V domains shown)
VH: EVQLVESGGGVVQPGRSLRLSCAASGFTFNFYSMHWVRQVPGKGLEWVAVISFDGSTKHYAESLRGRFAVSRDNSKSTLYLQMNSLRPEDTAVYYCASPPLSPIPAAGTPLDYWGQGTLVTVSS
VL: EIVMTQSPDSLAVSLGERATINCKSSQSIFYRSDDKDFLAWYQQKPGQPPKLLISWASTRESGVPDRFSGSGSGTDFTLTISSLQAEDVAVYYCQQFYYTPFTFGPGTKLEIK
notes: also called F31 E7
B2: NI-607.274_E5 (antibody, V domains shown)
VH: EVQLVESGGGMVQPGRSLRLSCAGSGFTFSTHGMHWVRQAPGKGLEWITGITYDGSDEFYADSVKGRFTIARDNSKNMLYLQMNSLRAEDTAVYFCAKDLEWLTNYVDHWGQGTLVTVSS
VL: DIVMTQSPGTLSVSPGERATLSCRASQSVNYNLAWYQQKPGQAPRLLIFDASTRATGIPARFTGSGSGTEFTLTISSLQSEDFAVYYCQQSNAWLTFGGGTKLEIK
B3: NI-607.529_G4 (antibody, V domains shown)
VH: QVQLQQWGAGLLKPSETLSLTCAVYGGSFSGYYWSWIRQPPGKGLEWIGEINHSGSTNYNPSLKSRVTISVDTSKNQFSLKLSSVTAADTAVYYCARASLYYSDSSGYSHPYYFDYWGQGTLVTVSS
VL: QPVLTQPPSVSGAPGQRVTISCTGSSSNIGAGYDVHWYQQLPGTAPKLLIYGNSNRPSGVPDRFSGSKSGMSASLAITGLQAEDEADYYCQSYDSSLSGWVFGGGTKLTVL
B4: NI-607.531_D8 (antibody, V domains shown)
VH: EVQLVESGGGLVQPGRSLRLSCAASGFIFDDYAMHWVRQAPGKGLEWVSGISWNSDSIGYADSVKGRFTISRDNAKNSLYLQMNSLRAEDTALYYCAKGSRSDWSNPSDYWGQGTLVTVSS
VL: SYELTQPPSVSVAPGKTARITCGGNNIGSKSVHWYQQKPGQAPVLVVYDDSDRPSGIPERFSGSNSGNTATLTISRVEAGDEADYYCQVWDSSSDPVVFGGGTKLTVL
B5: NI-607.649_G7 (antibody, V domains shown)
VH: QVQLVESGGGLVQPGGSLRLSCAASGFTFSRYAMSWVRQAPGKGLEWVSAISGSGGSTYYADSVKGRFTISRDNSKNTLYLQINSLRAEDTAVYYCAKGVRWGVDYFDYWGQGTLVTVSS
VL: not shown
B6: NI-607.532_B6 (antibody, V domains shown)
VH: QVQLVQSGAEVKKPGASVKVSCKASGYTFTSYDINWVRQATGQGLEWMGWMNPNSGNTGYAQKFQGRVTMTRNTSISTAYMELSSLRSEDTAVYYCARVVSLTGFFDYWGQGTLVTVSS
VL: B4 VL with S31N, V97W
B7: NI-607.532_D4 (antibody, V domains shown)
VH: QVQLVQSGAEVKRPGASVKVSCKASGYHFTDYYIHWVRQAPGQGLEWMGWINPNSGGTNYAQKFQGRVTMTRDTSISTAYMELSRLRSDDTAVYYCARVYYYDSSSFADYWGQGTLVTVSS
VL: not shown
notes: also called NI-607.532_D4C5
B8: NI-607.275_C5 (antibody, V domains shown)
VH: QVQLVESGGGLVQPGGSLRLSCAASGFTVSSNYMSWVRQAPGKGLEWVSVIYSGGSTYYADSVKGRFTISRDNSKNTLYLQMNSLRAEDTAVYYCARDFGDYYFDYWGQGTLVTVSS
VL: not shown
B9: NI-607.761_B7 (antibody, V domains shown)
VH: EVQLVESGGGVVQPGRSLRLSCAASGFTFTRYGMHWVRQAPGKGLEWVAVIWYDGNNKNYEDSVRGRFTISRDNSKNTLFLQMNSLRAEDTAVYYCARGRRGGYSYGLFDYWGQGILVTVSS
VL: AIRMTQSPSSLSASVGDRVTITCQASQDISNYLNWYQQKPGKAPKLLIYDASNLETGVPSRFSGSGSGTDFTFTISSLQPEDVATYSCQQYDNLPLTFGGGTKVEIK
B10: NI-607.791_B10 (antibody, V domains shown)
VH: QVQLQQWGAGLLKPSETLSRTCAVYGGSFSDYYWSWIRQPPGKGLEWIGEVNHRGVTNYNPSLKSRVTISIDTSKSQFSLELRSVTDADTALYFCARSPFWTIAARPFDYWGRGTLVTVSS
VL: EIVMTQSPGTLSLSPGERATLSCRASQSVISNYLAWYQQKPGQAPRFLIYAASTRARGIPDRFSGSGSGTDFTLTISRLEAEDFAVYYCQQYGNSPLTFGGGTKLEIK
B11: NI-607.531_E3 (antibody, V domains shown)
VH: EVQLVESGGGVVQPGRSLRLSCAASGFTFSSYGMHWVRQAPGKGLEWVAVISYDGSNKYYADSVKGRFTISRDNSKNTLYLQMNSLRAEDTAVYYCAKQISGYNYPYYFDYWGQGTLVTVSS
VL: not shown
B12: NI-607.820_B6 (antibody, V domains shown)
VH: EVQLQESGPGLVKPSETLSLTCTVSGGSVSSGSYYWSWIRQPPGKGLEWIGYIYYSGSTNYNPSLKSRVTISVDTSKNQFSLKVSSVTAADTAVYYCARDSIVVVPAARPLYYGMDVWGQGTTVTVSS
VL: not shown
B13: NI-607.820_B7 (antibody, V domains shown)
VH: EVQLVESGGGLVQPGRSLRLSCAASGFTFDDFDMHWVRQAPGKGLEWVSGVTWNSGIIGYADSVKGRFTISRDNAKNSLYLQMNSLRAEDTALYYCAKEFYPRYGSGIRSHYFGMDVWGQGTTVTVSS
VL: QSVLTQSPSASGTPGQRVTISCSGSSSNVGSNAVNWYQQLPGTAPKLLIYSNNRRPSGVPNRFSGSKSGTSASLAISGLQSDDEADYYCAAWDDSLDGPTFGGGTKLTVL
B14: NI-607.426_D4 (antibody, V domains shown)
VH: not shown
VL: EIVLTQSPATLSLSPGERATLSCRASQSVSSYLAWYQQKPGQAPRLLIYDASNRATGIPARFSGSGSGTDFTLTISSLEPEDFAVYYCQQRSNWPPVTFGQGTRLEIK
B15: NI-607.426_E2 (antibody, V domains shown)
VH: EVQLVESGGGLVQPGGSLRLSCAASGFTFSSYDMHWVRQATGKGLEWVSAIGTAGDTYYPGSVKGRFTISRENAKNSLYLQMNSLRAEDTAVYYCARASFLDYSWLYFDYWGQGTLVTVSS
VL: not shown
B16: NI-607.532_C8 (antibody, V domains shown)
VH: QVQLVESGGGLVKPGRSLRLSCTASGFTFGDYAMSWFRQAPGKGLEWVGFIRSKAYGGTTEYAASVKGRFSISRDDSKSIAYLQMNSLKTEDTAVYYCTRGWIVVVIEDAFDIWGQGTMVTVSS
VL: not shown
B17: NI-607.532_D8 (antibody, V domains shown)
VH: EVQLVESGGGVVQPGRSLRLSCAASGFTFSSYGMHWVRQAPGKGLEWVAVISYDGSNKYYADSVKGRFTISRDNSKNTLYLQMNSLRAEDTAVYYCAKQGGGQYCSGGSCYSGYFDYWGQGTLVTVSS
VL: not shown

Experiments:
[1] = target: T2, SARS-CoV-2-S1 (RBD)-His protein (Trenzyme) (SARS-CoV-2, UniProt P0DTC2 319-541); test: direct ELISA on coated RBD-His
[2] = target: T2, SARS-CoV-2-S1 (RBD)-His protein …; test: iQue flow cytometry, antigen-coated beads
[3] = target: recombinant SARS-CoV Spike protein (RBD, His tag) (SARS-CoV, UniProt P59594 306-527); test: iQue flow cytometry, antigen-coated beads
[4] = target: T1, MERS-CoV Spike protein fragment (RBD, …); test: iQue flow cytometry, antigen-coated beads
[5] = target: T2, SARS-CoV-2-S1 (RBD)-His protein …; test: competition ELISA, RBD binding to coated ACE2
[6] = target: SARS-CoV-2 Spike (S) protein on vesicular stomatitis virus (VSV) pseudoviruses (SARS-CoV-2, UniProt P0DTC2 14-1273); test: cell-based or functional assay
BSA (Sigma-Aldrich) = target: T3, BSA (Sigma-Aldrich) (bovine, UniProt P02769 25-607); test: direct ELISA on coated BSA
T3 construct: also called bovine serum albumin; BSA control

| Binder | EC50 [1] | EC50 [2] | EC50 [3] | EC50 [4] | IC50 [5] | IC50, pseudovirus entry assay (luciferase, HEK 293T-ACE2 cells) [6] | binding result (BSA (Sigma-Aldrich)) |
| --- | --- | --- | --- | --- | --- | --- | --- |
| B1 | 0.027 nM | 1.3 nM | 600 nM | 800 nM | 3.67 nM | 3.9 µg/mL |  |
| B2 | 0.015 nM | 0.39 nM | 900 nM | 900 nM | 12.6 nM |  | no binding (tested: 400 nM) |
| B3 | 0.026 nM | 1.3 nM | 10 nM | 1000 nM |  | > 100 µg/mL | no binding (tested: 400 nM) |
| B4 | 0.0045 nM | 1.4 nM |  | 1000 nM |  | > 100 µg/mL | no binding (tested: 400 nM) |
| B5 | 0.024 nM | 5.7 nM | 22.2 nM | 800 nM |  | > 100 µg/mL |  |
| B6 | 0.0045 nM | 1.1 nM | 4.2 nM | 1000 nM |  | 100 µg/mL | no binding (tested: 400 nM) |
| B7 | 0.0055 nM | 1 nM | 1000 nM | 1000 nM |  |  |  |
| B8 | 0.02 nM | 1.5 nM |  | 800 nM | 36.8 nM |  | no binding (tested: 400 nM) |
| B9 | 0.001 nM | 0.44 nM | 200 nM | 200 nM | 56 nM |  | no binding (tested: 400 nM) |
| B10 | 0.062 nM | 13.7 nM | 400 nM | 400 nM |  |  | no binding (tested: 400 nM) |
| B11 | 0.02 nM | 1.4 nM | 2.6 nM | 1000 nM |  |  | no binding (tested: 400 nM) |
| B12 | 0.029 nM | 2.4 nM | 60.2 nM | 1000 nM |  |  | no binding (tested: 400 nM) |
| B13 | 0.082 nM | 9 nM | 800 nM | 800 nM |  |  | no binding (tested: 400 nM) |
| B14 | 0.033 nM | 0.76 nM | 1000 nM | 1000 nM | 24.4 nM |  | no binding (tested: 400 nM) |
| B15 | 0.03 nM | 2.06 nM |  | 600 nM | 10.7 nM |  | no binding (tested: 400 nM) |
| B16 |  |  | 400 nM | 400 nM |  |  | no binding (tested: 400 nM) |
| B17 | 0.0051 nM | 14.4 nM | 32 nM | 1000 nM |  |  |  |
